53 proteins from the supplement of paper PMC10567573 can be followed below.

The data set in a line: protein stability index of a GFP-peptide fusion (GPS, HEK-293T) (PSI 1-6); higher = more stable.
Where [1] appears, read: parent: NP_009172.2, c terminus: native.
[2] abbreviates: parent: NP_015628.1, c terminus: native.
[3] abbreviates: parent: NP_116010.1, c terminus: native.
The mark [4] stands for this setting: parent: NP_006221.1, c terminus: native.
Setting [5] is: parent: NP_002788.1, c terminus: native.

In the case of AFKAAALIQRWYRRYVARLEMRRR, the protein stability index (parent: IOH82202_4, c terminus: a fixed tail appended) worked out at 3.14.
In the case of DCAGSPQKPLCASDGRTFLSRCEF, for the setting “parent: IOH81799_8, c terminus: a fixed tail appended”, the protein stability index worked out at 2.54.
For IDFLRVVRNQQSLAVSNMGARSKG, the protein stability index (parent: IOH82149_81, c terminus: a fixed tail appended) came to 2.4.
Take LPALFTDLYSQEITAEEAREALPA [SNF8 addA]: the protein stability index under setting [1] was 3.42.
For the protein YVEVKEGKTWKQICDKHWTAKNSR, under “parent: IOH81790_35, c terminus: a fixed tail appended”, the protein stability index was determined as 2.24.
As to YAGNLHESGVHGALLALDENFDHN, the protein stability index (parent: IOH82170_95, c terminus: a fixed tail appended) was 2.51.
Regarding FSPDGPSRFRKAYKPEQPLVRLRG, for the setting “parent: IOH81790_52, c terminus: a fixed tail appended”, the protein stability index was 1.81.
On to EQRNSRWNTVLRAVKAKTHHLEPT [TRPA1 addT], for which, under setting [2], the protein stability index was 4.19.
On to HSLRAVSTDPPHHDHHDEFCLMPA [BEX2 addA], for which the protein stability index under setting [3] was determined as 3.18.
Turning to VNVPGSFVCQCYSGYALAEDGKRC, the protein stability index (parent: IOH81883_50, c terminus: a fixed tail appended) amounted to 1.99.
With CQPISFSGFGAEDDDLGGLGLGPA [POLD2 addA], the protein stability index under setting [4] is 2.54.
For the protein LKGAFPARLKKVLIVGAPIWFRVP, the protein stability index (parent: IOH82149_30, c terminus: a fixed tail appended) worked out at 2.96.
In the case of CQPISFSGFGAEDDDLGGLGLGPT [POLD2 addT], the protein stability index under setting [4] was 2.6.
With GSLPWQGLKADTLKERYQKIGDTK [CSNK1G1 WT], the protein stability index (parent: IOH82133_42, c terminus: a fixed tail appended) came out at 4.1.
Regarding HSLRAVSTDPPHHDHHDEFCLMP [BEX2 WT], the protein stability index under setting [3] amounted to 2.48.
On to ILFSLPPALDWDSVHVPGPHAMTI, for which the protein stability index (parent: IOH82149_45, c terminus: a fixed tail appended) worked out at 2.54.
Regarding NKWTVQYNVSPLSWNVAVKFLMAR, the protein stability index (parent: IOH82149_6, c terminus: a fixed tail appended) came to 2.09.
Turning to FTETNNHWPQGPTGPPGPPGPMGP [EMID1 WT], under “parent: IOH81855_48, c terminus: a fixed tail appended”, the protein stability index was 2.31.
Regarding FIVDILQFLDIGPDVTRVGLLQYG, the protein stability index (parent: IOH81883_14, c terminus: a fixed tail appended) was found to be 2.92.
For the protein DGWIRVSSDNVADLHEKYSGSTPT [PSMB5 addT], the protein stability index under setting [5] came to 3.53.
As for VIDLFDEQGLSALHLAAQGRHAQT, under “parent: IOH82264_122, c terminus: a fixed tail appended”, the protein stability index was found to be 2.72.
On to PGVHRRYSALREESAKDWETSPLP, for which the protein stability index (parent: IOH82170_4, c terminus: a fixed tail appended) was 4.19.
With MVHVARLLLLLLTFFLRTDAETPP, the protein stability index (parent: IOH82190_1, c terminus: a fixed tail appended) is 2.92.
For EQRNSRWNTVLRAVKAKTHHLEP [TRPA1 WT], under setting [2], the protein stability index came to 3.03.
On to HVDPEEPWSPCSARFITDFLDNGY, for which, under “parent: IOH81847_67, c terminus: a fixed tail appended”, the protein stability index came to 1.84.
Take RLLRFSSQIHNNGQSDFRPKNGRH: the protein stability index (parent: IOH81790_100, c terminus: a fixed tail appended) stood at 2.72.
Regarding PALETQPQGDEEDIASRYPTLWTE, the protein stability index (parent: IOH81799_32, c terminus: a fixed tail appended) was found to be 4.26.
Turning to SYVRSRKRLREEEAARLFKQIVSA, for the setting “parent: IOH82269_29, c terminus: a fixed tail appended”, the protein stability index is 2.13.
On to DGWIRVSSDNVADLHEKYSGSTP [PSMB5 WT], for which the protein stability index under setting [5] turned out to be 2.42.
For VMTLPSDLRKHRRKLLSPVSREEN, the protein stability index (parent: IOH82170_31, c terminus: a fixed tail appended) is 3.53.
As for FIPSSHNDRDFLTRIFTEDRFAQD, the protein stability index (parent: IOH82202_13, c terminus: a fixed tail appended) stood at 2.05.
As to AAWQGHLPIVKLLAKQPGVSVNAQ, where the note is “parent: IOH82264_97, c terminus: a fixed tail appended”, the protein stability index turned out to be 2.35.
With TDDSYSCHCLKGFTLNPDKKTCRR, the protein stability index (parent: IOH81883_64, c terminus: a fixed tail appended) is 2.25.
As for HISSCKLGPQVSLDPMKNVTCENG, the protein stability index (parent: IOH81790_46, c terminus: a fixed tail appended) stood at 3.95.
On to SFRKFRYGYNNVVTIPAGATHILV, for which the protein stability index (parent: IOH81847_116, c terminus: a fixed tail appended) amounted to 2.6.
With QKPLCASDGRTFLSRCEFQRAKCK, the protein stability index (parent: IOH81799_9, c terminus: a fixed tail appended) stood at 2.71.
Take LTKLREMGREKCHQYWPAERSARY: the protein stability index (parent: IOH82190_223, c terminus: a fixed tail appended) amounted to 2.36.
In the case of FICQATGDPRPKIVWNKKGKKVSN, the protein stability index (parent: IOH82190_8, c terminus: a fixed tail appended) is 2.13.
As for ITWFKDFLPVDTSNNNGRIKQLRS, the protein stability index (parent: IOH82190_27, c terminus: a fixed tail appended) amounted to 1.83.
On to DHSGFISLDEFRQTWKLFSSHMNI, for which the protein stability index (parent: IOH82202_112, c terminus: a fixed tail appended) amounted to 1.7.
Turning to LPALFTDLYSQEITAEEAREALPT [SNF8 addT], under setting [1], the protein stability index turned out to be 3.79.
Turning to AVKKFVESEDDPVVKKIALREIRM [CDKL4 WT], the protein stability index (parent: IOH82195_6, c terminus: a fixed tail appended) is 2.87.
For the protein FSLKTFKRKSEVERAVKRMRHLST, the protein stability index (parent: IOH81883_19, c terminus: a fixed tail appended) was 2.06.
In the case of LPALFTDLYSQEITAEEAREALP [SNF8 WT], the protein stability index under setting [1] is 2.74.
As for EIGTSDQIVPEYQEDSDISSFFC, for the setting “parent: IOH82269_63, c terminus: native”, the protein stability index is 2.87.
Turning to VSVNAQTLDGRTPLHLAAQRGHYR, the protein stability index (parent: IOH82264_100, c terminus: a fixed tail appended) was determined as 3.37.
For CQPISFSGFGAEDDDLGGLGLGP [POLD2 WT], under setting [4], the protein stability index is 2.27.
For the protein RERMELLEEAKKMEMAKFRYILPV, the protein stability index (parent: IOH82264_11, c terminus: a fixed tail appended) was found to be 2.38.
As to TQHLPRECLPENLGGYVKIDLATW, the protein stability index (parent: IOH82149_38, c terminus: a fixed tail appended) turned out to be 1.88.
Regarding DGWIRVSSDNVADLHEKYSGSTPA [PSMB5 addA], the protein stability index under setting [5] was determined as 2.51.
With EQRNSRWNTVLRAVKAKTHHLEPA [TRPA1 addA], the protein stability index under setting [2] worked out at 4.26.
With ELDELLKEISRKRRSIRYGREVEL, under “parent: IOH82190_126, c terminus: a fixed tail appended”, the protein stability index is 2.18.
Take PVVSMDLDPQPITDEEEGLIWVVG: the protein stability index (parent: IOH82190_140, c terminus: a fixed tail appended) amounted to 3.88.
